Measured values reported in patent US20150344570A1 (published 2015).

B1: GpH7-A5/GpH7-B3 variant E333_08L/GpL16-k0 (antibody, human IgG1, kappa)
heavy 1: not shown
heavy 2: not shown
light: DIVMTQSPLSLPVTPGEPASISCQASESLVHSNRNTYLHWYLQKPGQSPQLLIYKVSNRFSGVPDRFSGSGSGTDFTLKISRVEAEDVGVYYCSQNTHVPPTFGQGTKVEIERTVAAPSVFIFPPSDEQLKSGTASVVCLLNNFYPREAKVQWKVDNALQSGNSQESVTEQDSKDSTYSLSSTLTLSKADYEKHKVYACEVTHQGLSSPVTKSFNRGEC
notes: also called He Ab E333_08L
B2: GpH7-A5/GpH7-B3 variant G237_18N/GpL16-k0 (antibody, human IgG1, kappa)
heavy 1: not shown
heavy 2: not shown
light: DIVMTQSPLSLPVTPGEPASISCQASESLVHSNRNTYLHWYLQKPGQSPQLLIYKVSNRFSGVPDRFSGSGSGTDFTLKISRVEAEDVGVYYCSQNTHVPPTFGQGTKVEIERTVAAPSVFIFPPSDEQLKSGTASVVCLLNNFYPREAKVQWKVDNALQSGNSQESVTEQDSKDSTYSLSSTLTLSKADYEKHKVYACEVTHQGLSSPVTKSFNRGEC
notes: also called He Ab G237_18N
B3: GpH7-A5/GpH7-B3 variant E333_15Y/GpL16-k0 (antibody, human IgG1, kappa)
heavy 1: not shown
heavy 2: not shown
light: DIVMTQSPLSLPVTPGEPASISCQASESLVHSNRNTYLHWYLQKPGQSPQLLIYKVSNRFSGVPDRFSGSGSGTDFTLKISRVEAEDVGVYYCSQNTHVPPTFGQGTKVEIERTVAAPSVFIFPPSDEQLKSGTASVVCLLNNFYPREAKVQWKVDNALQSGNSQESVTEQDSKDSTYSLSSTLTLSKADYEKHKVYACEVTHQGLSSPVTKSFNRGEC
notes: also called He Ab E333_15Y
B4: GpH7-A5/GpH7-B3 variant H268_11K/GpL16-k0 (antibody, human IgG1, kappa)
heavy 1: not shown
heavy 2: not shown
light: DIVMTQSPLSLPVTPGEPASISCQASESLVHSNRNTYLHWYLQKPGQSPQLLIYKVSNRFSGVPDRFSGSGSGTDFTLKISRVEAEDVGVYYCSQNTHVPPTFGQGTKVEIERTVAAPSVFIFPPSDEQLKSGTASVVCLLNNFYPREAKVQWKVDNALQSGNSQESVTEQDSKDSTYSLSSTLTLSKADYEKHKVYACEVTHQGLSSPVTKSFNRGEC
notes: also called He Ab H268_11K
B5: GpH7-A5/GpH7-B3 variant G237_08L/GpL16-k0 (antibody, human IgG1, kappa)
heavy 1: not shown
heavy 2: not shown
light: DIVMTQSPLSLPVTPGEPASISCQASESLVHSNRNTYLHWYLQKPGQSPQLLIYKVSNRFSGVPDRFSGSGSGTDFTLKISRVEAEDVGVYYCSQNTHVPPTFGQGTKVEIERTVAAPSVFIFPPSDEQLKSGTASVVCLLNNFYPREAKVQWKVDNALQSGNSQESVTEQDSKDSTYSLSSTLTLSKADYEKHKVYACEVTHQGLSSPVTKSFNRGEC
notes: also called He Ab G237_08L
B6: GpH7-A5/GpH7-B3 variant G237_09D/GpL16-k0 (antibody, human IgG1, kappa)
heavy 1: not shown
heavy 2: not shown
light: DIVMTQSPLSLPVTPGEPASISCQASESLVHSNRNTYLHWYLQKPGQSPQLLIYKVSNRFSGVPDRFSGSGSGTDFTLKISRVEAEDVGVYYCSQNTHVPPTFGQGTKVEIERTVAAPSVFIFPPSDEQLKSGTASVVCLLNNFYPREAKVQWKVDNALQSGNSQESVTEQDSKDSTYSLSSTLTLSKADYEKHKVYACEVTHQGLSSPVTKSFNRGEC
notes: also called He Ab G237_09D
B7: GpH7-A5/GpH7-B3 variant H268_03V/GpL16-k0 (antibody, human IgG1, kappa)
heavy 1: not shown
heavy 2: not shown
light: DIVMTQSPLSLPVTPGEPASISCQASESLVHSNRNTYLHWYLQKPGQSPQLLIYKVSNRFSGVPDRFSGSGSGTDFTLKISRVEAEDVGVYYCSQNTHVPPTFGQGTKVEIERTVAAPSVFIFPPSDEQLKSGTASVVCLLNNFYPREAKVQWKVDNALQSGNSQESVTEQDSKDSTYSLSSTLTLSKADYEKHKVYACEVTHQGLSSPVTKSFNRGEC
notes: also called He Ab H268_03V
B8: GpH7-A5/GpH7-B3 variant G237_02A/GpL16-k0 (antibody, human IgG1, kappa)
heavy 1: not shown
heavy 2: not shown
light: DIVMTQSPLSLPVTPGEPASISCQASESLVHSNRNTYLHWYLQKPGQSPQLLIYKVSNRFSGVPDRFSGSGSGTDFTLKISRVEAEDVGVYYCSQNTHVPPTFGQGTKVEIERTVAAPSVFIFPPSDEQLKSGTASVVCLLNNFYPREAKVQWKVDNALQSGNSQESVTEQDSKDSTYSLSSTLTLSKADYEKHKVYACEVTHQGLSSPVTKSFNRGEC
notes: also called He Ab G237_02A
B9: GpH7-A5/GpH7-B3 variant G236_14T/GpL16-k0 (antibody, human IgG1, kappa)
heavy 1: not shown
heavy 2: not shown
light: DIVMTQSPLSLPVTPGEPASISCQASESLVHSNRNTYLHWYLQKPGQSPQLLIYKVSNRFSGVPDRFSGSGSGTDFTLKISRVEAEDVGVYYCSQNTHVPPTFGQGTKVEIERTVAAPSVFIFPPSDEQLKSGTASVVCLLNNFYPREAKVQWKVDNALQSGNSQESVTEQDSKDSTYSLSSTLTLSKADYEKHKVYACEVTHQGLSSPVTKSFNRGEC
notes: also called He Ab G236_14T
B10: GpH7-A5/GpH7-B3 variant G237_06M/GpL16-k0 (antibody, human IgG1, kappa)
heavy 1: not shown
heavy 2: not shown
light: DIVMTQSPLSLPVTPGEPASISCQASESLVHSNRNTYLHWYLQKPGQSPQLLIYKVSNRFSGVPDRFSGSGSGTDFTLKISRVEAEDVGVYYCSQNTHVPPTFGQGTKVEIERTVAAPSVFIFPPSDEQLKSGTASVVCLLNNFYPREAKVQWKVDNALQSGNSQESVTEQDSKDSTYSLSSTLTLSKADYEKHKVYACEVTHQGLSSPVTKSFNRGEC
notes: also called He Ab G237_06M
B11: GpH7-A5/GpH7-B3 variant H268_12R/GpL16-k0 (antibody, human IgG1, kappa)
heavy 1: not shown
heavy 2: not shown
light: DIVMTQSPLSLPVTPGEPASISCQASESLVHSNRNTYLHWYLQKPGQSPQLLIYKVSNRFSGVPDRFSGSGSGTDFTLKISRVEAEDVGVYYCSQNTHVPPTFGQGTKVEIERTVAAPSVFIFPPSDEQLKSGTASVVCLLNNFYPREAKVQWKVDNALQSGNSQESVTEQDSKDSTYSLSSTLTLSKADYEKHKVYACEVTHQGLSSPVTKSFNRGEC
notes: also called He Ab H268_12R

Biological target: T1, FcγRIIa R (human, UniProt P12318 34-217)
T1 construct: extracellular domain; also called FcgRIIa R type; 2aR
T1 sequence (looked up): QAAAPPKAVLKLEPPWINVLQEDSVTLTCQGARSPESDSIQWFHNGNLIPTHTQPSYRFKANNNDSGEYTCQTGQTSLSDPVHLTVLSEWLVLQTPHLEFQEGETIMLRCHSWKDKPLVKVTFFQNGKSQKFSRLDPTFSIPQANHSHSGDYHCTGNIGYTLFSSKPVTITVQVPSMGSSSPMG
Assay: SPR (Biacore), captured antibody, FcγR as analyte; relative binding activity

He/Con_2aR | Binder
103 % (GpH7-A5/GpH7-B3/GpL16-k0 = 100) | B1
150 % (GpH7-A5/GpH7-B3/GpL16-k0 = 100) | B2
101 % (GpH7-A5/GpH7-B3/GpL16-k0 = 100) | B3
100 % (GpH7-A5/GpH7-B3/GpL16-k0 = 100) | B4
133 % (GpH7-A5/GpH7-B3/GpL16-k0 = 100) | B5
156 % (GpH7-A5/GpH7-B3/GpL16-k0 = 100) | B6
109 % (GpH7-A5/GpH7-B3/GpL16-k0 = 100) | B7
126 % (GpH7-A5/GpH7-B3/GpL16-k0 = 100) | B8
103 % (GpH7-A5/GpH7-B3/GpL16-k0 = 100) | B9
133 % (GpH7-A5/GpH7-B3/GpL16-k0 = 100) | B10
105 % (GpH7-A5/GpH7-B3/GpL16-k0 = 100) | B11
